Measured values from US20010039258A1, “Active agent transport systems” (Emisphere Technologies, Inc., priority 1990, published 2001).
One block for each molecule: values may come before it.

How the values were obtained:
α-interferon [1] = target: T1, α-interferon (Homo sapiens, UniProt P01563); assay: Isothermal titration calorimetry of perturbant complexing with α-interferon; format: binding; conditions: pH 7.2, 25° C.
T1 construct: purchased Schering Plough Corp
Procedure: Isothermal titration calorimetry of perturbant complexing with α-interferon was performed at 25° C. at two different pH's. The buffers used were 20 mM NaPhosphate for pH 7.2 and 20 mM NaAc for pH 3.0. α-interferon solution was dialyzed before the experiment to reach the appropriate pH. Dry perturbants were weighed and diluted in dialysate.
ITC was conducted on a MicroCal OMEGA titration calorimeter (MicroCal Inc.—Northampton, Mass.). Data points were collected every 2 seconds, without subsequent filtering. α-interferon solution placed in 1.3625 mL cell was titrated using a 250 μL syringe filled with concentrated perturbant solution. A certain amount of titrant was injected every 3-5 minutes for up to 55 injections.
A reference experiment to correct for the heat of mixing of two solutions, was performed identically except that the reaction cell was filled with buffer without active agent.
Analysis of the data was performed using the software developed at the Johns Hopkins University Biocalorimetry Center.
The titration at pH 7.2 included 53 injections of 2 μL of the perturbant of Example 30 (50 mg/mL=191.6 mM (MW 261)) and α-interferon (1.3 mg/mL=0.067 mM (MW 19400)).
The titration at pH 7.2 included two runs of […] each of 5 μL of perturbant (50 mg/mL=181 mM (FW 277)) and α-interferon (2.31 mg/mL=0.119 mM, (MW 19400)).
ITC was performed according to the method of Example 24 with 40 injections of 5 μL of the perturbant benzoyl para-amino phenylbutyric acid (7.5 mg/mL=24.59 mM, (FW 305)) and α-interferon (2.5 mg/mL=0.129 mM, (MW 19400)).

[2] = Solubility of perturbant under the DSC buffer conditions; format: physicochemical; conditions: room temperature; buffer conditions of the DSC (20 mM NaPhosphate pH 7.2)
Procedure: (§1) Perturbant binding DSC was conducted using 20 mM NaPhosphate buffer at pH 7.2. Dry perturbant was weighed out to make perturbant stock solutions. α-interferon stock was diluted in the buffer. α-interferon solution was not dialyzed prior to experiments for the purpose of having the same active concentration for the whole set.
DSC experiments were carried out according to the procedure of Example 19, with 0.5 mg/ml α-interferon mixed with (1) benzoyl para-amino phenylbutyric acid, (2) the perturbant of Example 22, or (3) the perturbant of Example 19.
Benzoyl para-amino phenylbutyric acid was poorly soluble under the buffer conditions. Maximum concentration at which the solution was still transparent at room temperature was ˜8 mg/mL. Therefore, the concentrations of the perturbant used were 2, 4, and 6 mg/mL. Results are illustrate in FIGS. 17 and 18. The dashed line in FIG. 17 represents the linear least squares, and the regression equation is at the top of FIG. 17.

α-interferon [3] = target: T1, α-interferon; assay: Isothermal titration calorimetry of perturbant complexing with α-interferon; format: binding; conditions: pH 7; read-out: apparent dissociation constant
[4] = DSC of insulin with increasing guanidine hydrochloride; format: physicochemical
Procedure: DSC was performed with […] insulin (0.83 mM assuming a molecular weight of 6,000) in 50 mM phosphate buffer, pH 7.5. Each subsequent thermogram was corrected by background subtraction of a 0.6M guanidine-phosphate buffer solution.
Insulin was freshly prepared as a concentrated stock solution in 50 mM phosphate buffer, pH 7.5, and an appropriate aliquot was diluted in buffer, filtered though a 2 micron PTFE filter, and degassed for at least 20 minutes. The reference cell contained degassed buffer.
Scanning calorimetry was performed using 5 mg 0.83 mM porcine insulin (MW 6,000) per mL in 50 mM phosphate buffer, pH 7.5. All thermograms were performed on a Microcal MC-2 scanning calorimeter equipped with the DA2 data acquisition system operated in the upscale mode at 1° C./min (up to 90° C.), and data points were collected at 20 second intervals. All scans were initiated at least 20 degrees below the observed transitions for the active agent. All thermograms were corrected for baseline subtraction and normalized for the concentration of macromolecule. According to the methods of the Johns Hopkins Biocalorimetry Center, See, for example, Ramsay et al. Biochemistry (1990) 29:8677-8693; Schon et al. Biochemistry (1989) 28:5019-5024 (1990) 29: 781-788. […]

[5] = DSC of insulin, effect of ionic strength; format: physicochemical; conditions: pH 7.5
Procedure: (§2) Scanning calorimetry was performed using 5 mg 0.83 mM porcine insulin (MW 6,000) per mL in 50 mM phosphate buffer, pH 7.5. All thermograms were performed on a Microcal MC-2 scanning calorimeter equipped with the DA2 data acquisition system operated in the upscale mode at 1° C./min (up to 90° C.), and data points were collected at 20 second intervals. All scans were initiated at least 20 degrees below the observed transitions for the active agent. All thermograms were corrected for baseline subtraction and normalized for the concentration of macromolecule. According to the methods of the Johns Hopkins Biocalorimetry Center, See, for example, Ramsay et al. Biochemistry (1990) 29:8677-8693; Schon et al. Biochemistry (1989) 28:5019-5024 (1990) 29: 781-788.
A sample containing 6 mg/mL insulin (0.83 mM in 50 mM phosphate buffer, pH 7.5, containing 0.25, 0.5, or 1.0M NaCl) was used. Thermograms were performed according to the procedure in Example 9 and were corrected by subtraction of a 0.5M NaCl-phosphate buffer blank as described above.
The effect of increasing ionic strength on structure was assessed in DSC experiments where individual solutions were prepared so as to contain NaCl at concentrations ranging from 0.25-3M.

[6] = DSC of α-interferon, pH dependence; format: physicochemical
Procedure: as §2
α-interferon stock (9.1 mg/mL) was diluted with buffer to a concentration of 0.6 mg/mL. The sample was dialyzed overnight in buffer (volume ratio of α-interferon to buffer was 1:4000). Since there was no extinction coefficient provided, concentration of the sample used was determined by comparison of absorption spectra of the sample before and after dialysis. For each particular pH, the absorbance of the nondialyzed α-interferon of known concentration was measured at 280 nm. Then after dialysis, absorbance was read again to account for the protein loss, dilution, etc. Buffer conditions and α-interferon concentrations were:
pH 3.0: Buffer—20 mM NaAc. [IFN]=0.50 mg/mL;
pH 4.1: Buffer—20 mM NaAc. [IFN]=0.53 mg/mL;
pH 5.0: Buffer—20 mM NaAc. [IFN]=0.37 mg/mL;
pH 6.0: Buffer—20 mM Na Phosphate. [IFN]=0.37 mg/mL;
pH 7.2: Buffer—20 mM Na Phosphate. [IFN]=0.48 mg/mL.
DSC scans were performed according to the procedure of Example 9. Although clear, transparent solutions of α-interferon were obtained for every pH at room temperature, there were noticeable signs of precipitation at pH 5.0 and 6.0 after the temperature scans.

[7] = DSC of α-interferon in GuHCl; format: physicochemical
Procedure: GuHCl 5M stock solution was prepared using 20 mM sodium phosphate, pH 7.2 buffer. After dilution, the pH of the stock was checked and adjusted by concentrated HCl. To determine the concentration of final solution the refractive index referenced in Methods in Enzymology, Vol. 6, page 43 by Yasuhiko Nozaki was used.
α-interferon stock (9.1 mg/mL) was mixed with sufficient amounts of GuHCl to yield the concentrations of Table 1A below:
as §2
GuHCL/α-interferon samples were prepared according to the method of Example 4. DSC scans were performed according to the procedure of Example 9.

α-interferon [8] = target: T1, α-interferon; assay: Perturbant binding DSC with α-interferon; conditions: perturbant 0 mg/ml; α-interferon 0.64 mg/ml; pH 7.2
Procedure: as §1
DSC thermograms were generated with α-interferon at a concentration of 0.64 mg/ml and a perturbant (phenylsulfonyl-para-aminobenzoic acid purified to >98% (as determined by reverse phase chromatography prior to generation of the spectra)) at perturbant concentrations of 5, 10, 25 and 100 mg/ml. DSC was conducted on a DASM-4 differential scanning calorimeter interfaced to an IBM PC for automatic collection of the data. The scanning rate was 60° C./h.
The method of Example 19 was followed substituting α-interferon without perturbant. Results are illustrated in Table 9 below and FIG. 10. […]

[9] = target: salmon calcitonin (salmon) (UniProt P01263); assay: ITC, 30 C, pH 4.5; perturbant in syringe, sCt in cell
Chain of salmon calcitonin (salmon) (P01263 83-114 limits assumed): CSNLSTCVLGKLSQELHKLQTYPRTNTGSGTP

[10] = target: salmon calcitonin (salmon) (UniProt P01263); assay: ITC, 30 C, pH 6.6 (text: pH 6.5); perturbant in syringe, sCt in cell
[11] = target: salmon calcitonin (salmon) (UniProt P01263); assay: ITC, 30 C, pH 4.5 (30 mM sodium acetate-30 mM NaCl); perturbant in syringe, sCt in cell
[12] = target: salmon calcitonin (salmon) (UniProt P01263); assay: ITC, 30 C, pH 6.6 (text: pH 6.5, 30 mM Hepes-30 mM NaCl); perturbant in syringe, sCt in cell

T1 sequence (P01563 24-188): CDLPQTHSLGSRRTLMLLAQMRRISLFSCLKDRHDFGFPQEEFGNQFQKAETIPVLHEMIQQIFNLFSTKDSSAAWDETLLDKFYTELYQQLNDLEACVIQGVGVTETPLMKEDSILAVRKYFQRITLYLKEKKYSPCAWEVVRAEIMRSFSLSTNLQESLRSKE

log 10 Ka (1), Ka=association constant (α-interferon [1]): 3.343
ΔH (1) (α-interferon [1]): 791.5726 cal/Mole perturbant
n (1), # of complexed perturbant molecules (α-interferon [1]; curve fitting, multiple independent sites): 23.7
Maximum concentration at which the solution was still transparent [2]: ≥ 8 mg/mL
Kd (α-interferon [3]): 100 µM
Molecule: O=C(O)CCCc1ccc(NC(=O)c2ccccc2)cc1 [benzoyl para-amino phenylbutyric acid]

Molecule: Insulin: porcine insulin (MW 6,000)
Tm (Cp, max) ([4]; 0.0 M GuHCl, 50 mM phosphate pH 7.5): 78.3 °C
Tm (Cp, max) ([4]; 0.5 M GuHCl, pH 7.5): 79.3 °C
Tm (Cp, max) ([4]; 1.0 M GuHCl, pH 7.5): 77.5 °C
Tm (Cp, max) ([4]; 2.0 M GuHCl, pH 7.5): 69.7 °C
Tm (Cp, max) ([4]; 3.0 M GuHCl, pH 7.5): no transition observed
Tm (Cp, max) ([5]; 0.0 M NaCl): 78.3 °C
Tm (Cp, max) ([5]; 0.25 M NaCl): 80.7 °C
Tm (Cp, max) ([5]; 0.5 M NaCl): 80.7 °C
Tm (Cp, max) ([5]; 1.0 M NaCl): 80.7 °C

Molecule: α-Interferon
Tm ([6]; pH 4.1): 65.64 °C
ΔH ([6]; pH 4.1): 60.47 kcal/mol
Tm ([6]; pH 5.0): 67.32 °C
ΔH ([6]; pH 5.0): 69.782 kcal/mol
Tm ([6]; pH 6.0): 65.34 °C
ΔH ([6]; pH 6.0): 45.58 kcal/mol
Tm ([6]; pH 7.2): 66.84 °C
ΔH ([6]; pH 7.2): 732.717 kcal/mol
Tm ([7]; [GuHCl] 0.0 M): 67.12 °C
ΔH ([7]; [GuHCl] 0.0 M): 72.562 kcal/mol
Tm ([7]; [GuHCl] 0.5 M): 64.43 °C
ΔH ([7]; [GuHCl] 0.5 M): 50.827 kcal/mol
Tm ([7]; [GuHCl] 1.0 M): 63.04 °C
ΔH ([7]; [GuHCl] 1.0 M): 41.705 kcal/mol
Tm ([7]; [GuHCl] 1.5 M): 60.11 °C
ΔH ([7]; [GuHCl] 1.5 M): 29.52 kcal/mol
Tm ([7]; [GuHCl] 2.0 M): 56.32 °C
ΔH ([7]; [GuHCl] 2.0 M): 24.98 kcal/mol
Tm ([7]; [GuHCl] 3.0 M): 45.90 °C
ΔH ([7]; [GuHCl] 3.0 M): 20.577 kcal/mol
Tm of α-interferon (α-interferon [8]): 67.12 °C
ΔH of α-interferon (α-interferon [8]): 72.562 kcal/mol

N [9]: 0.8
delta H [9]: 0.553 kcal/mol
delta S [9]: 19.8 cal/mol ° K
N [10]: 11.6
delta H [10]: 0.277 kcal/mol
delta S [10]: 38.3 cal/mol ° K
Kd [11]: 129 µM
Kd [12]: 0.00699 µM
Molecule: thermal condensation product of glutamic acid, aspartic acid, tyrosine, and phenyl-alanine (Glu-Asp-Tye-Phe) fractionated through a 3000 molecular weight cut-off filter
